For this test, the target named is recombinant biotinylated SARS-CoV-2 spike RBD, wild type (SARS-CoV-2) (UniProt P0DTC2). The experiment in a line: BLI. Conditions: bispecific antibody.

Usually Kd stands for the concentration at which binding is half-saturated.

Take “bispecific antibody BI-1C2C (IgG-ScFv format, from mAbs 13-1C and 6-2C) (from UniProt P01857)”: the Kd came to 2.16 nM.

As to “bispecific antibody BI-2C1C (IgG-ScFv format, from mAbs 6-2C and 13-1C) (from UniProt P01857)”, the Kd stood at 1.04 nM.

For the substance “bispecific antibody BI-2C5B (IgG-ScFv format: 6-2C IgG with 10-5B ScFv) (from UniProt P01857)”, the dissociation constant (Kd) turned out to be 4.71 nM.

For “bispecific antibody BI-5B2C (IgG-ScFv format: 10-5B IgG with 6-2C ScFv) (from UniProt P01857)”, the Kd was 4.89 nM.

(Values after PMC10107573.)
